Measured values published in KR20200059381A.

Key:
[1] = target: 구제역 바이러스 혈청형 O 배양액(cal1~cal4) (Foot-and-mouth disease virus serotype O); experiment: sandwich ELISA, cal2, 1E58 coat 8 ug/ml, 1E58-HRP 0.8 ug/ml, 450 nm
[2] = target: 구제역 바이러스 혈청형 O 배양액(cal1~cal4) (Foot-and-mouth disease virus serotype O); experiment: sandwich ELISA, cal3, 1E58 coat 1 ug/ml, 1E58-HRP 0.2 ug/ml, 450 nm
[3] = target: 구제역 바이러스 혈청형 O 배양액(cal1~cal4) (Foot-and-mouth disease virus serotype O); experiment: sandwich ELISA, cal4, 1E58 coat 1 ug/ml, 1E58-HRP 0.2 ug/ml, 450 nm
[4] = target: 구제역 바이러스 혈청형 O 배양액(cal1~cal4) (Foot-and-mouth disease virus serotype O); experiment: sandwich ELISA, cal1, 1E58 coat 1 ug/ml, 1E58-HRP 0.2 ug/ml, 450 nm
[5] = target: 구제역 바이러스 혈청형 O 배양액(cal1~cal4) (Foot-and-mouth disease virus serotype O); experiment: sandwich ELISA, cal3, 1E58 coat 2 ug/ml, 1E58-HRP 0.4 ug/ml, 450 nm
[6] = target: 구제역 바이러스 혈청형 O 배양액(cal1~cal4) (Foot-and-mouth disease virus serotype O); experiment: sandwich ELISA, cal2, 1E58 coat 4 ug/ml, 1E58-HRP 0.8 ug/ml, 450 nm
[7] = target: 구제역 바이러스 혈청형 O 배양액(cal1~cal4) (Foot-and-mouth disease virus serotype O); experiment: sandwich ELISA, cal4, 1E58 coat 1 ug/ml, 1E58-HRP 0.8 ug/ml, 450 nm
[8] = target: 구제역 바이러스 혈청형 O 배양액(cal1~cal4) (Foot-and-mouth disease virus serotype O); experiment: sandwich ELISA, cal3, 1E58 coat 8 ug/ml, 1E58-HRP 0.8 ug/ml, 450 nm
[9] = target: 구제역 바이러스 혈청형 O 배양액(cal1~cal4) (Foot-and-mouth disease virus serotype O); experiment: sandwich ELISA, cal1, 1E58 coat 4 ug/ml, 1E58-HRP 0.2 ug/ml, 450 nm
[10] = target: 구제역 바이러스 혈청형 O 배양액(cal1~cal4) (Foot-and-mouth disease virus serotype O); experiment: sandwich ELISA, cal3, 1E58 coat 4 ug/ml, 1E58-HRP 0.6 ug/ml, 450 nm
[11] = target: 구제역 바이러스 혈청형 O 배양액(cal1~cal4) (Foot-and-mouth disease virus serotype O); experiment: sandwich ELISA, cal1, 1E58 coat 4 ug/ml, 1E58-HRP 0.6 ug/ml, 450 nm
[12] = target: 구제역 바이러스 혈청형 O 배양액(cal1~cal4) (Foot-and-mouth disease virus serotype O); experiment: sandwich ELISA, cal3, 1E58 coat 8 ug/ml, 1E58-HRP 0.6 ug/ml, 450 nm
[13] = target: 구제역 바이러스 혈청형 O 배양액(cal1~cal4) (Foot-and-mouth disease virus serotype O); experiment: sandwich ELISA, cal4, 1E58 coat 1 ug/ml, 1E58-HRP 0.6 ug/ml, 450 nm
[14] = target: 구제역 바이러스 혈청형 O 배양액(cal1~cal4) (Foot-and-mouth disease virus serotype O); experiment: sandwich ELISA, cal1, 1E58 coat 2 ug/ml, 1E58-HRP 0.6 ug/ml, 450 nm
[15] = target: 구제역 바이러스 혈청형 O 배양액(cal1~cal4) (Foot-and-mouth disease virus serotype O); experiment: sandwich ELISA, cal2, 1E58 coat 1 ug/ml, 1E58-HRP 0.6 ug/ml, 450 nm
[16] = target: 구제역 바이러스 혈청형 O 배양액(cal1~cal4) (Foot-and-mouth disease virus serotype O); experiment: sandwich ELISA, cal1, 1E58 coat 8 ug/ml, 1E58-HRP 0.6 ug/ml, 450 nm
[17] = target: 구제역 바이러스 혈청형 O 배양액(cal1~cal4) (Foot-and-mouth disease virus serotype O); experiment: sandwich ELISA, cal3, 1E58 coat 8 ug/ml, 1E58-HRP 0.4 ug/ml, 450 nm
[18] = target: 구제역 바이러스 혈청형 O 배양액(cal1~cal4) (Foot-and-mouth disease virus serotype O); experiment: sandwich ELISA, cal2, 1E58 coat 8 ug/ml, 1E58-HRP 0.2 ug/ml, 450 nm
[19] = target: 구제역 바이러스 혈청형 O 배양액(cal1~cal4) (Foot-and-mouth disease virus serotype O); experiment: sandwich ELISA, cal4, 1E58 coat 4 ug/ml, 1E58-HRP 0.4 ug/ml, 450 nm
[20] = target: 구제역 바이러스 혈청형 O 배양액(cal1~cal4) (Foot-and-mouth disease virus serotype O); experiment: sandwich ELISA, cal2, 1E58 coat 1 ug/ml, 1E58-HRP 0.2 ug/ml, 450 nm
[21] = target: 구제역 바이러스 혈청형 O 배양액(cal1~cal4) (Foot-and-mouth disease virus serotype O); experiment: sandwich ELISA, cal4, 1E58 coat 8 ug/ml, 1E58-HRP 0.6 ug/ml, 450 nm
[22] = target: 구제역 바이러스 혈청형 O 배양액(cal1~cal4) (Foot-and-mouth disease virus serotype O); experiment: sandwich ELISA, cal2, 1E58 coat 1 ug/ml, 1E58-HRP 0.4 ug/ml, 450 nm
[23] = target: 구제역 바이러스 혈청형 O 배양액(cal1~cal4) (Foot-and-mouth disease virus serotype O); experiment: sandwich ELISA, cal4, 1E58 coat 8 ug/ml, 1E58-HRP 0.4 ug/ml, 450 nm
[24] = target: 구제역 바이러스 혈청형 O 배양액(cal1~cal4) (Foot-and-mouth disease virus serotype O); experiment: sandwich ELISA, cal3, 1E58 coat 8 ug/ml, 1E58-HRP 0.2 ug/ml, 450 nm
[25] = target: 구제역 바이러스 혈청형 O 배양액(cal1~cal4) (Foot-and-mouth disease virus serotype O); experiment: sandwich ELISA, cal4, 1E58 coat 2 ug/ml, 1E58-HRP 0.6 ug/ml, 450 nm
[26] = target: 구제역 바이러스 혈청형 O 배양액(cal1~cal4) (Foot-and-mouth disease virus serotype O); experiment: sandwich ELISA, cal2, 1E58 coat 2 ug/ml, 1E58-HRP 0.8 ug/ml, 450 nm
[27] = target: 구제역 바이러스 혈청형 O 배양액(cal1~cal4) (Foot-and-mouth disease virus serotype O); experiment: sandwich ELISA, cal1, 1E58 coat 4 ug/ml, 1E58-HRP 0.4 ug/ml, 450 nm
[28] = target: 구제역 바이러스 혈청형 O 배양액(cal1~cal4) (Foot-and-mouth disease virus serotype O); experiment: sandwich ELISA, cal2, 1E58 coat 8 ug/ml, 1E58-HRP 0.6 ug/ml, 450 nm

B1: 단클론항체 1E58 (antibody, V domains shown)
VH: EFQLQQSRPELAKPGASVKISCKTSGHTFTTYTMHWVKQSHVKSLEWIGCFNPNNGGATYNQKFKGKATLTMDKSSNTAYVEVRSLTSDDSAVYYCAYGNYVNFDYWGQGTTLTVSS
VL: DIVLTQSPASLAVSLGQRATISYRASKSVSTSGYSYMHWNQQKPGQPPRLLIYLVSNLESGVPARFSGSGSGTDFTLNIHPVEEEDAATYYCQHIRELTRSEGGPSWKN
Which results are given for B1?
O.D [1]: 4 O.D; O.D [2]: 0.54 O.D; O.D [3]: 0.5 O.D; O.D [4]: 1.81 O.D; O.D [5]: 1.37 O.D; O.D [6]: 3.75 O.D; O.D [7]: 1.07 O.D; O.D [8]: 1.31 O.D; O.D [9]: 3.47 O.D; O.D [10]: 2.15 O.D; O.D [11]: 4 O.D; O.D [12]: 1.13 O.D; O.D [13]: 0.74 O.D; O.D [14]: 3.68 O.D; O.D [15]: 1.55 O.D; O.D [16]: 3.27 O.D; O.D [17]: 0.96 O.D; O.D [18]: 1.24 O.D; O.D [19]: 0.88 O.D; O.D [20]: 1.06 O.D; O.D [21]: 0.62 O.D; O.D [22]: 1.4 O.D; O.D [23]: 0.39 O.D; O.D [24]: 0.62 O.D; O.D [25]: 0.87 O.D; O.D [26]: 3.67 O.D; O.D [27]: 3.15 O.D; O.D [28]: 1.84 O.D
